Read-outs that look alike come from different tables or passages of the source.
Key:
Experiment in all cases: SEC
[1] = target: PLP-bound Rv2531c (Mycobacterium tuberculosis)
[2] = target: Rv2531c (apo) (Mycobacterium tuberculosis)
[3] = target: Rv2531c (apo) (Mycobacterium tuberculosis); remark: listed apart in the source

| Substance | stoichiometry N [1] | stoichiometry N [2] | stoichiometry N [3] |
| --- | --- | --- | --- |
| PLP-bound Rv2531c (enzyme) | 2 | – | – |
| Rv2531c (apo) (enzyme) | – | 4 | 4 |

From article PMC12329521
